In patent CN113698481A (SUZHOU CENTERGENE PHARMACEUTICALS CO LTD, dated 2021):
Substitutions are numbered along the chain they refer to.

B1: SEQ ID NO 7 (VHH)
VHH: QVQLVESGGGLVQAGGSLRLSCVASGRTFSSYDMGWFRQAPGEEREAVAAINWSGGSTYYADSVKGRFTISSDNAKNTVYLQMNNLKPEDTAVYYCAARQVPGWWDYWGQGTQVTVSS
notes: Expressed in E. coli, nickel column purified; Only the CDRs are printed; also called 蛋白7
B2: SEQ ID NO 3 (VHH)
VHH: QVQVAESGGGLVQSGGSMNLSCTASGNLFSVDAMGWFRQAPGEEREAVAAIMWSGDSTYYANAVKGRFTISRDNAKNTVYLQMNSLKPEDTAVYYCAARLQEEGWWDYWGQGTQVTVSS
notes: Expressed in E. coli, nickel column purified; Only the CDRs are printed; also called 蛋白3
B3: SEQ ID NO 6 (VHH)
VHH: B2 VHH with A5V, S14P, M18L, N19R, T23A, N27R, L28T, F29V, V31S, D32H
notes: Expressed in E. coli, nickel column purified; Only the CDRs are printed; also called 蛋白6
B4: SEQ ID NO 5 (VHH)
VHH: QVQLVESGGGLAQAGGSLRLSCAASGRTASGYAMGWFRQAPGKEREAVAAIMWSGGSTYYADSVKGRFTISRDNAKNTVYLQMNSLKTEDTAVYYCAARTDGSGWWDYWGQGTQVTVSS
notes: Expressed in E. coli, nickel column purified; Only the CDRs are printed; also called 蛋白5
B5: SEQ ID NO 4 (VHH)
VHH: QVRLVESGGGLVQPGGSLRLSCTASGGTFDRYNVAWFRQAPGEEREAVASIMWSGDNTYYANSVKGRFTISRDNAKNTVYLQMNSLKPEDTAVYYCAARIQEQGWWDYWGQGTQVTVSS
notes: Expressed in E. coli, nickel column purified; Only the CDRs are printed; also called 蛋白4

Molecular target: T1, 人绒毛膜促性腺激素(HCG) (human, UniProt P0DN86 21-165)
T1 construct: Alpha/beta heterodimer coated on ELISA plates; The source of the HCG preparation is lost from the text (gap after 'HCG |'); also called HCG抗原
T1 sequence (chain, as listed by the source, chain 1 of 2, other chains not shown): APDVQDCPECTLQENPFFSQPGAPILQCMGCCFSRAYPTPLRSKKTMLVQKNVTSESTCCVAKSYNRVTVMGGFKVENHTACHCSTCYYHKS
Experiment: ELISA, HCG coated at 2 μg/ml, VHH detected with anti-6xHis-HRP, 4-parameter fit

Binder	EC50
B1	0.014 µg/mL
B2	0.0259 µg/mL
B3	0.0138 µg/mL
B4	0.00946 µg/mL
B5	0.00505 µg/mL
